{"source": "a protein production outcome set (Wang et al. 2014)", "test": "label from the status in PepcDB records", "data": [{"sequence": "MGAASCEDEELEFKLVFGEEKEAPPLGAGGLGEELDSEDAPPCCRLALGEPPPYGAAPIGIPRPPPPRPGMHSPPPRPAPSPGTWESQPARSVRLGGPGGGAGGAGGGRVLECPSIRITSISPTPEPPAALEDNPDAWGDGSPRDYPPPEGFGGYREAGAQGGGAFFSPSPGSSSLSSWSFFSDASDEAALYAACDEVESELNEAASRFGLGSPLPSPRASPRPWTPEDPWSLYGPSPGGRGPEDSWLLLSAPGPTPASPRPASPCGKRRYSSSGTPSSASPALSRRGSLGEEGSEPPPPPPLPLARDPGSPGPFDYVGAPPAESIPQKTRRTSSEQAVALPRSEEPASCNGKLPLGAEESVAPPGGSRKEVAGMDYLAVPSPLAWSKARIGGHSPIFRTSALPPLDWPLPSQYEQLELRIEVQPRAHHRAHYETEGSRGAVKAAPGGHPVVKLLGYSEKPLTLQMFIGTADERNLRPHAFYQVHRITGKMVATASYEAVVSGTKVLEMTLLPENNMAANIDCAGILKLRNSDIELRKGETDIGRKNTRVRLVFRVHVPQGGGKVVSVQAASVPIECSQRSAQELPQVEAYSPSACSVRGGEELVLTGSNFLPDSKVVFIERGPDGKLQWEEEATVNRLQSNEVTLTLTVPEYSNKRVSRPVQVYFYVSNGRRKRSPTQSFRFLPVICKEEPLPDSSLRGFPSASATPFGTDMDFSPPRPPYPSYPHEDPACETPYLSEGFGYGMPPLYPQTGPPPSYRPGLRMFPETRGTT", "values": [{"measurement": "protein production", "value": "not failed"}]}, {"sequence": "MSKHLCFTAFSSIALFLLCFSSWASAVAPAEINEARLVAQYNYSINILAMLLVGFGFLMVFVRRYGFSATTGTYLVVATGLPLYILLRANGIFGHALTPHSVDAVIYAEFAVATGLIAMGAVLGRLRVFQYALLALFIVPVYLLNEWLVLDNASGLTEGFQDSAGSIAIHAFGAYFGLGVSIALTTAAQRAQPIESDATSDRFSMLGSMVLWLFWPSFATAIVPFEQMPQTIVNTLLALCGATLATYFLSALFHKGKASIVDMANAALAGGVAIGSVCNIVGPVGAFVIGLLGGAISVVGFVFIQPMLESKAKTIDTCGVHNLHGLPGLLGGFSAILIVPGIAVAQLTGIGITLALALIGGVIAGALIKLTGTTKQAYEDSHEFIHLAGPEDEHKAERLVLEAKTEIQGLKNRIDAAVLSAKSEG", "values": [{"measurement": "protein production", "value": "not failed"}]}, {"sequence": "MSLKRFDLIIRSSTVVTETTTYRADVAIRNGIVSAITEPGSISSDDGPAIDGTGLHLFPGMVDVHVHFNEPGRTEWEGFASGSKSLAAGGVTTYFDMPLNSNPPTITREELDKKRQLANEKSLVDYRFWGGLVPGNIDHLQDLHDGGVIGFKAFMSECGTDDFQFSHDETLLKGMKKIAALGSILAVHAESNEMVNALTTIAIEEQRLTVKDYSEARPIVSELEAVERILRFAQLTCCPIHICHVSSRKVLKRIKQAKGEGVNVSVETCPHYLLFSLDEFAEIGYLAKCAPPLRERQEVEDLWDGLMAGEIDLISSDHSPSLPQMKTGKTIFEVWGGIAGCQNTLAVMLTEGYHKRKMPLTQIVQLLSTEPAKRFGLYPQKGTIQVGAEASFTLIDLNESYTLNASDLYYRHPISPYVGQRFRGKVKHTICQGKHVYQDHEGHHHHHH", "values": [{"measurement": "protein production", "value": "not failed"}]}, {"sequence": "QTEGLETVHIKGQRSYNAIATEKNGDYSSFAATVGTKIPASLREIPQSVSIITNQQVKDRNVDTFDQLARKTPGLRVLSNDDGRSSVYARGYEYSEYNIDGLPAQMQSINGTLPNLFAFDRVEVMRGPSGLFDSSGEMGGIVNLVRKRPTKAFQGHAAAGFGTHKQYKAEADVSGSLNSDGSVRGRVMAQTVGASPRPAEKNNRRETFYAAADWDINPDTVLGAGYLYQQRRLAPYNGLPADANNKLPSLPQHVFVGADWNKFKMHSHDVFADLKHYFGNGGYGKVGMRYSDRKADSNYTFAGSKLNNTGQADVAGLGTDIKQKAFAVDASYSRPFALGNTANEFVIGADYNRLRSTNEQGRSTLSKSVALDGFRALPYNGILQNARAGNKGFNHSVTEENLDETGLYAKTVFRPLEGLSLIAGGRVGHHKIESGDGKTLHKASKTKFTSYAGAVYDIDGSNSLYASASQLYTPQTSIGTDGKLLKPREGNQFEIGYKGSYMDDRLNTRVSFYRMKDKNAAAPLDSNNKKTRYAALGKRVMEGVETEISGAMTPKWQIHAGYSYLHSQIKTASNSRDEGIFLLMPKHSANLWTTYQVTSGLTIGGGVNA", "values": [{"measurement": "protein production", "value": "failed"}]}, {"sequence": "MIMMENDRISDFFIVAFIFSWVLWIPVAMVSAGFSFPQPLQAFLESPYNPAAFGPTLAAVLLSYRYGGRDELLALLRKGVNYDFHRIWWPVILLFFPVLTAVALYLGVLWGDPQPYLYWTSQPLMVIMVFIYIFFLGGPLQEEFGWRGYALPRLQRRYSPIYAALIIGFIWGLWHIPLFFIGGSIQSQVPFWSFMILIISASVIYTWVYNSTGSILATMIIHTTGNLSYFLFPVQGTLAGGIFLMILNVAAALAVMLFAGSELKTDFGGQGH", "values": [{"measurement": "protein production", "value": "failed"}]}, {"sequence": "MNNGQPLKHRGVTVEDLLRLRSVRDPHYASDGTHGVFVQKSIDEEKQYCSHLYIWTEDGAVRQWTFGRWRDTRPRFSPDSKTIAFLSDRSGHTQLWLLPADGGEARQLTFFKNGVRDYVWAPDGTFLIALTTLGDNETIDDREEPKKKETKPADLKPRVVERLYYKSDASGFLDGKQAVLVCIDATSGKTEALTSREEEISSFAISPNGRTLAFMANRNEDPDTTFTRDIVLLDLESKAETNLTKGSGTFTSLAWSPDGTKLAAIGHDLAFLGATIHQLYVFEPERGTKRVLTADWDVHLGDAMVGDTHADAKGPGPIWKRDGTGLYVTASERGRVNVYFVPLDGPIVPIIEGDFHVYGLAIHPNEQQAVAAISEPTMIGDLYTISLESGTKTRLTRVNEALENEVTFADAEPFTYQSTDGWDIQGWIMKPPRLGDGEKAPLVVEIHGGPHTMYGFTFFHEFQLLASSGYVVLFTNPRGSHGYGQSFVNAVRGDYGGMDYEDIMAGVDAAIKQFAFIDETRLGVTGGSYGGFMTNWIVGHTNRFRAAVTQRSISNWLSFAGVSDIGYFFTKWEVGCDVWEDAERLWHHSPLKYVKNVRTPLLILHSEHDYRCPIEQAEQLFIALKQLGQETKLVRFPDANHDLSRTGNPALRLERLRQIVGWFDHYLKGPLD", "values": [{"measurement": "protein production", "value": "failed"}]}, {"sequence": "MRPAAARVLLGAFAFAVVADLASQALGSDTGHLLAKPLLMPLLAAYAAVRGGPRLLVVALLLGWAGDVLLLSDADPAFLAGMSSFAAGHVCYLVLFARHGRTRARGALLAGGYGLVLVTTVALLWPGLPAGLRVPVVGYSLLLTAMAYGATRLGPVAGLGGALFLLSDTLIATGVADWPQLPRPDFWIMLTYAAGQYLLVRGVTDTLGAPTAPAAAYGEVRSTTP", "values": [{"measurement": "protein production", "value": "failed"}]}, {"sequence": "MTEHRPAIELEEIPTLLERIEGYKGRSRLTQLAIKLNLLIFIRSSELRFARWSEIDFKSGLWVIPEQREAIKGIKHSDRGAKMRRKHYVPLCEQALVILGELKDLTYDVNGDDGFILTGCYDAMKPMSENTINKALRKMGYDTKTDLCGHGFRTLACSALIESGIWPEDVVELQMSHMEKNNVRAAYTHKAKHLEQRRLMLQWWADFLDANGSGMVRPFEFAQGATQYLEHHHHHH", "values": [{"measurement": "protein production", "value": "failed"}]}, {"sequence": "MTAVETKKQYLTVFKEDGIAEIHLHINKSNSYDLEFYKEFNAAIDDIRFDPDIKVVIVMSDVPKFFSAGADINFLRSADPRFKTQFCLFCNETLDKIARSPQVYIACLEGHTVGGGLEMALACDLRFMGDEAGKIGLPEVSLGVLAGTGGTQRLARLIGYSRALDMNITGETITPQEALEIGLVNRVFPQAETRERTREYARKLANSATYAVSNIKLAIMNGKEMPLNVAIRYEGELQNLLFRSEDAKEGLSAFLEKRQPNWKGI", "values": [{"measurement": "protein production", "value": "not failed"}]}, {"sequence": "AGVSDTAASVCITITAPSKAWNIAGLKCAQIIFSNPSDAEHWQQLSPVIKDGASTLGLIAAEAAYRYGTDFLNQEVAYLKNNHDFLLHEIPKRIPGAKITPMQATYLMWIDFRDTTIEGSPSEFFIEKAKVAMNDGAWFGEDGTGFCRLNFATSREVLEEAIDRMAKAVSHHT", "values": [{"measurement": "protein production", "value": "failed"}]}, {"sequence": "MYEFNLVLLLLQQMCVFLVIAWLMSKTRLFIPLMQVTVRLPHKLLCYVTFSIFCIMGTYFGLHIEDSIANTRAIGAVMSGLLGGPVVGGLVGLTGGLHRYSMGGMTALSCMISTIVEGLLGGLVHSVLIRRGRPDKVFSPLTAGAITCVAELVQMLIILLIARPFDDALHLVSNIAAPMMVTNTVGAALFMRILLDKRAMFEKYTSAFSATALKVAASTEGILRQGFNEVNSMKVAQVLYQELDIGAVAITDREKLLAFTGIGDDHHLPGKPISSGYTLKAIETGEVVYADGNEVPYRCSLHPQCKLGSTLVIPLRGENQRVMGTIKLYEAKNRLFSSINRTLGEGIAQLLSAQILAGQYERQKALLTQSEIKLLHAQVNPHFLFNALNTIKAVIRRDSEQASQLVQYLSTFFRKNLKRPSEIVTLADEIEHVNAYLQIEKARFQSRLQVQLDVPSTLSRQKLPAFTLQPIVENAIKHGTSQLLDTGNVAIRARREGQHLMLDIEDNAGLYQPSAGSSGLGMSLVDKRLREHFGDDYGISVACEPDCFTRITLRLPLEEDA", "values": [{"measurement": "protein production", "value": "failed"}]}, {"sequence": "MITGKRFKFILLTFIFAAGLFFTQAGILFAQDKPDALKLYRQGRSLDSIGRREDARAAYLSAIEICRNELKVNSKNMDSYAVYTWCLFRLGRYKDTELVCSDALKIGRDARIIETLAEAQFFLGNYKDSLRNMEMYIEMAPNGERISVAHFFVGEIYRNTKKYHKADIAYSISVHLEPSNSLWWYRLGIVREAAGEKEGAIAAYQTAVKLRPEFKEAAEALKRVKI", "values": [{"measurement": "protein production", "value": "failed"}]}, {"sequence": "MLELLTLLLPVAAASGWYAAARHHGRNLSAGLNDGLQRAYQTPTDTAIGARADEAFHLLRQIADSSAKTLELQLALGGLLRRSGELSKAIELHERLHSQPQMSDEQLHAIRFELGMDYLSAGLLDRAETVFAGLTATASHGKASLQQMLAIYQSEKDWVRAAECARSLKKFDAGQRNATLAHLLCEQAESAIARGETVAAHAHLQQALAEDPRCVRATLLKSRLALQRQQWAEAGTLLRSVEFQNPAFLPEVIGQLRLCHASLRDMDGYLTYLDYVYQRYRTEAAALLLADELAQREGAPAAASYLTGLLSERSSLNLIRRTLHYAGAATCIDGDCLSILRRCLTALDGLASMHPGYGCVQCGYECRELHWHCPTCRAWETIQPADPGVGFSGKTPATTPS", "values": [{"measurement": "protein production", "value": "failed"}]}, {"sequence": "MASSVDEEALHQLYLWVDNIPLSRPKRNLSRDFSDGVLVAEVIKFYFPKMVEMHNYVPANSLQQKLSNWGHLNRKVLKRLNFSVPDDVMRKIAQCAPGVVELVLIPLRQRLEERQRRRKQ", "values": [{"measurement": "protein production", "value": "not failed"}]}, {"sequence": "MNNTQKKLKVLFIGESWHIHMIHSKGYDSFTSSKYEEGATWLLECLRKGGVDIDYMPAHTVQIAFPESIDELNRYDVIVISDIGSNTFLLQNETFYQLKIKPNALESIKEYVKNGGGLLMIGGYLSFMGIEAKANYKNTVLAEVLPVIMLDGDDRVEKPEGICAEAVSPEHPVVNGFSDYPVFLGYNQAVARDDADVVLTINNDPLLVFGEYQQGKTACFMSDCSPHWGTQQFMSWPFYTDLWVNTLQFIARK", "values": [{"measurement": "protein production", "value": "not failed"}]}, {"sequence": "MAGMDNLIAIAAAMLYLLSIATIVPGLVNQTGIRAKTVFISAAIALLFHGWLLSDLILHSSGQNLSILNVASLISFIISLAMSLAMFKTRLWFLLPVAYSFSAINLSAATFLPGTFITHLESDPKLLLHISLALFSYSTLSIGALYALQLAWLDHKLKSKKVFSINPNLPPLLLVERQLFKIILIGNLLLTGTLLTGFIFVQDMFAQGKAHKGILSFVAWIVYSILLWGHYRKGWRGKKVTWFAVAGATLLTLAYFGSRFVREIILR", "values": [{"measurement": "protein production", "value": "failed"}]}, {"sequence": "MSSVSEVNVDIKDFLMSINLEQYLLHFHESGFTTVKDCAAINDSLLQKIGISPTGHRRRILKQLQIILSKMQDIPIYA", "values": [{"measurement": "protein production", "value": "not failed"}]}, {"sequence": "MKKIAVFADVQNLYYTVRQAYGCHFNYAALWADISKRGEIVHAFAYAIDRGDSKQQQFQQILRNLGFTVRLKPYIQRSDGSAKGEWDVGITIDIMDFAPQVDEVVLASGDGDFDMLLDRVISKHGVEAVAYGVPGLTANSLIRAASRYVPIEGALLLK", "values": [{"measurement": "protein production", "value": "not failed"}]}]}
